Experiments:
[1] = test system: ^superFVa (recombinant super factor five, thrombin-activated)
[2] = target: recombinant human wild-type FVa (UniProt P12259)
[3] = target: ^superFVa (recombinant super factor five, thrombin-activated) (human) (UniProt P12259); assay: cell-based or functional assay
[4] = target: recombinant human wild-type FVa (UniProt P12259); assay: cell-based or functional assay

^superFVa (recombinant super factor five, thrombin-activated), sequence (chain, as listed by the source): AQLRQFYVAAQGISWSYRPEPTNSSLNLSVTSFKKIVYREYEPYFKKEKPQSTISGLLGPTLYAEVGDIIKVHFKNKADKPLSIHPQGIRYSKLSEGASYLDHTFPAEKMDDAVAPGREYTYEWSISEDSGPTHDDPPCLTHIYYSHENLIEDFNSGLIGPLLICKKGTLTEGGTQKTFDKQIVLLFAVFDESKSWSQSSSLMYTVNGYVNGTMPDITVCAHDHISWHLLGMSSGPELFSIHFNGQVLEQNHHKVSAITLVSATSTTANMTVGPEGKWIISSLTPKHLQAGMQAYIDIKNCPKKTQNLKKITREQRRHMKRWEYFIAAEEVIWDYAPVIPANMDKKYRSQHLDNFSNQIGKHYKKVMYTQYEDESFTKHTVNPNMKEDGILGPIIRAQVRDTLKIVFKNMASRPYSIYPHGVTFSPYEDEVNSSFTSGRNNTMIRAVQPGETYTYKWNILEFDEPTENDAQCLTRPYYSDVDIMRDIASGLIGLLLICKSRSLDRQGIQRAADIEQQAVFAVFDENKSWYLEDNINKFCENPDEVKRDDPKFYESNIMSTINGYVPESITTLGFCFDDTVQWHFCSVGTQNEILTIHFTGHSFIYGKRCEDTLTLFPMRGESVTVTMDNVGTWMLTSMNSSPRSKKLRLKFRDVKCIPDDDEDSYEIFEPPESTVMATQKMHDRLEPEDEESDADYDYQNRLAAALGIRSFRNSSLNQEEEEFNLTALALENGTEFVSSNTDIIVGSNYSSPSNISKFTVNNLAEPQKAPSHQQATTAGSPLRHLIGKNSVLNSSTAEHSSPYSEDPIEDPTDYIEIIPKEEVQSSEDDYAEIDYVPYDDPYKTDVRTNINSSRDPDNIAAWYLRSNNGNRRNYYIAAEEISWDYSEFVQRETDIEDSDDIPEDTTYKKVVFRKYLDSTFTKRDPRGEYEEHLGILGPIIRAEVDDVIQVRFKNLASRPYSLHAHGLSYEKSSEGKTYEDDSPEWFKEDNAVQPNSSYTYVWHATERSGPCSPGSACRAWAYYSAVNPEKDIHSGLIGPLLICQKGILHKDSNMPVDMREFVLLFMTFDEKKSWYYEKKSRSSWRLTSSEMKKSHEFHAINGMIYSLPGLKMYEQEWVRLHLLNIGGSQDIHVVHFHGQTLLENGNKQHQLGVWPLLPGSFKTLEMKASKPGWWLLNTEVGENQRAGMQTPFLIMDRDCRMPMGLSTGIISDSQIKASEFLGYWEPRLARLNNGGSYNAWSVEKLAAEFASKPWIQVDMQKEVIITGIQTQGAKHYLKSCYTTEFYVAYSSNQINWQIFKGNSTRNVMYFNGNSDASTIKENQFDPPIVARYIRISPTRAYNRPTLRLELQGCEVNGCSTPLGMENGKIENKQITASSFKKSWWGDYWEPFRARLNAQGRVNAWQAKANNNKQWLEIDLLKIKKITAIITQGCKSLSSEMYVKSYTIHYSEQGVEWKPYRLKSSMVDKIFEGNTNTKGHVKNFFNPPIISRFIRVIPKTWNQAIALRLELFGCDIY

| ex vivo whole blood aPTT after intravenous APC (0.5 mg/kg) in Balb/c mice [3] [s] | ex vivo whole blood aPTT after intravenous APC (0.5 mg/kg) in Balb/c mice [4] [s] | Substance | ETP restored in human or murine plasma in the presence of APC [1] | aPTT in human plasma with APC at 0.05 U/mL FVa variant [1] | aPTT in murine plasma with human APC at 5 U/mL FVa variant [1] | aPTT normalisation in human plasma with 10 nM APC, concentration relative to FVa [1] | ETP restored in human or murine plasma in the presence of APC [2] | aPTT in human plasma with APC at 0.05 U/mL FVa variant [2] | aPTT in murine plasma with human APC at 5 U/mL FVa variant [2] |
| --- | --- | --- | --- | --- | --- | --- | --- | --- | --- |
|  |  | recombinant human Activated Protein C (Xigris) | Only ^superFVa restored ETP to ˜90-100% in human or murine plasma at concentrations where FVa did not show effects | At 0.05 U/mL FVa variants, ^superFVa fully corrected the aPTT | At 5 U/mL FVa variants ^superFVa fully corrected the aPTT | in human plasma ^superFVa normalized the aPTT at 100-fold lower concentrations compared to FVa | at concentrations where FVa did not show effects | FVa shortened the aPTT only from ˜100 to 80 seconds | FVa shortened the aPTT only from ˜100 to 70 seconds |
| 30 | 50 | recombinant murine Activated Protein C (from UniProt P33587 42-460) (enzyme) |  |  |  |  |  |  |  |

Reference: US20160289299A1
